In series [1] the target is T1, ThkCPT (Thermococcus kodakarensis, UniProt Q5JGE1).
T1 construct: made in house; host or cells: E. coli
T1 sequence (Q5JGE1 1-264): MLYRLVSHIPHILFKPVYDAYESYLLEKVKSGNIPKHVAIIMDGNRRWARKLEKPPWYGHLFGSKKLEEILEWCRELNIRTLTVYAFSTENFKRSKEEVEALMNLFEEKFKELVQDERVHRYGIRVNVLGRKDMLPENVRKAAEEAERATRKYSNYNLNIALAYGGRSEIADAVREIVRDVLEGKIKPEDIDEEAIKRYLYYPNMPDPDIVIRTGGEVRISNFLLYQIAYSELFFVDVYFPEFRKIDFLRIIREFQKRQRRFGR
Kind of series: Product chain length by HPLC with fluorescent starter substrate 110. In kind it is biochemical, Thermococcus kodakaraensis. The procedure:
(§1) Zur Bestimmung der Produktkettenlängen wurden 500 µL Enzymassays in MS-Gläschen durchgeführt. […] Die Extraktion der Polyprenyldiphosphate erfolgte mit 500 µL 1-Butanol. Die Butanolphase wurde in ein neues Glas überführt und unter Stickstoffstrom von dem Lösungsmittel befreit. Die Hydrolyse der Diphosphate zum Polyprenol erfolgte durch Zugabe von 200 µL Hydrolysepuffer (20% Isopropanol, 4,4 Units/mL saure Phophatase aus Kartoffeln, 0,1 % Triton X-100, 50 mM Natriumacetat (pH 4,7)) und wurde über Nacht bei 37 °C inkubiert. Die Polyprenole wurden mit 500 µL nHexan extrahiert und zur weiteren DC- oder HPLC-Analyse vorbereitet. Für DC-Experimente und LC/ESI-MS-Analysen wurde die nHexan-Phase in ein neues Glas überführt, das Lösungsmittel abgedampft und die Produkte erneut in 100 µL nHexan resuspendiert um eine Aufkonzentrierung zu erreichen. Für HPLC-Analysen mit 110 ((2E,6E)-8-O-(N-methyl-2-aminobenzoyl)-3,7-dimethyl-2,6-octandien-1-diphosphat) als Startersubstrat wurde die nHexan-Phase 1:3 verdünnt in das HPLC-System mittels Autosampler injiziert.
Die HPLC-Analyse der Polyprenole erfolgte an einer Anlage von Merck HITACHI D-7000, wobei als stationäre Phase eine YMC-ODS AQ (150 x 4 mm, 5 µm; YMC Europe GmbH, Dinslaken) Säule verwendet wurde. Die Elution erfolgte mit 1 mL·min^-1 und die Detektion bei 210 nm mit einem UV-VIS Detektor: Merck HITACHI L-7420. Das Injektionsvolumen betrug dabei 5 µL. Die mobile Phase setzte sich aus Laufmittel A (MeOH/H2O/Isopropanol 12:1:8 (v/v/v)) und Laufmittel B (nHexan/Isopropanol 7:3 (v/v)) zusammen. Die Probenaufgabe erfolgte mittels Autosampler (Merck HITACHI L-7250). [drawing 35]
Zur selektiven und vor allem sensitiven Detektion von Polyprenolen kann ein alternatives, fluoreszierendes Startersubstrat verwendet werden, (2E,6E)-8-O-(N-methyl-2-aminobenzoyl)-3,7-dimethyl-2,6-octandien-1-diphosphat (110). Die Analyse erfolgte wie in Beispiel 6 beschrieben. Dabei wurden 3 µL pro Probe injiziert und die Detektion erfolgte über Fluoreszenz: Ex 352 nm / Em 420 nm wobei das Gerät Merck HITACHI L-7480 als Fluoreszenzdetektor verwendet wurde. […]

Series [2] concerns the target T2, E. coli Undecaprenyldiphosphatsynthase (EcUPPS) (Escherichia coli, UniProt P60472).
T2 construct: made in house; host or cells: E. coli
T2 sequence (P60472 1-253): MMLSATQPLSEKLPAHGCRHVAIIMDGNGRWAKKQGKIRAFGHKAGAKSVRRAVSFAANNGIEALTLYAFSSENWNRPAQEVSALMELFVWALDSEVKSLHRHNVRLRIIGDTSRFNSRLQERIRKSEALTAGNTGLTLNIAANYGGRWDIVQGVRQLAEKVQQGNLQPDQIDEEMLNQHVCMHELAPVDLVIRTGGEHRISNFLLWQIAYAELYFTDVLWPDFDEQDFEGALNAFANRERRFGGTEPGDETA
The series can be described thus: MTP phosphate detection assay (diphosphate release, BIOMOL Green), substrate kinetics. The format is biochemical. Particulars: for rel. kcat Km^-1: relative to natural substrate FPP (100 %). On the procedure:
(§2) Cis-Prenyltransferasen entlassen während der Reaktion Diphosphat nach jedem Kondensationsschritt. Dies ist der Ansatzpunkt, der gewählt wurde, um unabhängig von der Art des Produktes den Grundumsatz zu detektieren. […] Die Dreifachbestimmungen der Enzymreaktionen wurden mit 100 µL BIOMOL Green™ Detektionsreagenz gestoppt und nach weiteren 20 min in einem Mikrotiterplattenspektrophotometer bei 620 nm gemessen. Zur Kontrolle erfolgte für jede Substratkonzentration eine Messung mit denaturiertem Enzym zu den unterschiedlichen Zeitpunkten um Selbsthydrolyse der Substrate zu berücksichtigen. Zur Quantifizierung wurde eine Pi-Standardkurve in Doppelbestimmung mitgeführt. Die Verdünnung des KPi-Standards erfolgte in Assaypuffer, wurde mit 100 µL BIOMOL Green™ Detektionsreagenz nach Ablauf der Enzymreaktion in den Test-Wells detektiert und zeitgleich nach weiteren 20 min bei 620 nm gemessen. Eine lineare Beziehung zwischen A620 nm und Pi-Konzentration ermöglichte eine Quantifizierung zwischen 80 µM-0 µM Pi.
(§3) Die Bestimmung der FPP-Kinetiken der EcUPPS sowie der ThkCPT erfolgte unter analogen Bedingungen der Bestimmung von IPP. […] Die Enzymreaktion wurde nach 60 s, 120 s, 180 s, 300 s, 600 s, 900 s oder 1200 s durch Zugabe von 100 µL BIOMOL Green™ Detektionsreagenz gestoppt und wie oben beschrieben gemessen.
(§4) Die Assaybedingungen wurden wie in Beispiel 3 beschriebenen gewählt. […] Variation von 500 - 0 µM im Fall der Elongationssubstrate erfolgte konstant mit 10 µM FPP (jedes Homoallyldiphosphat möglich).
(§5) Zur Berechnung der Umsatzraten in nkat·mg^-1 wurde verwendet: ν0 = ((A620-ABlank)⋅1000)/(2⋅m⋅t⋅[E]) [formula] v0 Anfangsgeschwindigkeit der Diphosphathydrolyse (nkat·mg^-1) A620 Absorption bei 620 nm ABlank Absorption der Kontrolle bei 620 nm m Anstieg der Phosphatstandardkurve (µM^-1) t Dauer der Enzymreaktion (s) [E] Enzymkonzentration (mg·L^-1)
(§6) Die Auswertung erfolgte durch nicht-lineare Regression nach der Hill-Gleichung mit Sigma-Plot 11. […] Substratkonzentration (µM) h Hill-Koeffizient

The target of series [3] is T3, EcUPPS (Escherichia coli, UniProt P60472).
T3 construct: made in house; host or cells: E. coli
Kind of series: Product chain length by HPLC with fluorescent starter substrate 110. The format is biochemical. Particulars: 10 µM EcUPPS, 110 as starter substrate, HPLC of hydrolysed products. On the procedure:
as §1
Die HPLC-Analyse der Polyprenole erfolgte an einer Anlage von Merck HITACHI D-7000, wobei als stationäre Phase eine YMC-ODS AQ (150 x 4 mm, 5 µm; YMC Europe GmbH, Dinslaken) Säule verwendet wurde. Die Elution erfolgte mit 1 mL·min^-1 und die Detektion bei 210 nm mit einem UV-VIS Detektor: Merck HITACHI L-7420. […]

Series [4] deals with T4, Thermococcus kodakaraensis cis-Prenyltransferase (ThkCPT) (Thermococcus kodakarensis, UniProt Q5JGE1).
T4 construct: made in house; host or cells: E. coli
T4 sequence (Q5JGE1 1-264): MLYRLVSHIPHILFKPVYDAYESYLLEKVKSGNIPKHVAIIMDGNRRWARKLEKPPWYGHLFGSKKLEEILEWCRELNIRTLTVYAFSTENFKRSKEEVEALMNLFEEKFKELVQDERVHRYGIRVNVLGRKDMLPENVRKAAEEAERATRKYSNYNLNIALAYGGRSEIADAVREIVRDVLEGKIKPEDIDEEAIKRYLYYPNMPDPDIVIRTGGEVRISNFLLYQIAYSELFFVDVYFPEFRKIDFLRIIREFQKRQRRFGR
The series can be described thus: MTP phosphate detection assay (diphosphate release, BIOMOL Green), substrate kinetics. To be noted: elongation substrate varied, starter FPP 10 µM, room temperature. In kind it is biochemical. The procedure:
as §2, §3, §4, §5, §6

Substrate in series [5]: C=C(Cl)CCOP(=O)(O)OP(=O)(O)O
Described as above. In kind it is biochemical, Escherichia coli. Particulars: other: elongation substrate varied 500 - 0 µM, starter FPP constant 10 µM; 22.0 °C. The procedure: as §2, §3, §4, §5, §6

Substrate in series [6]: CNc1ccccc1C(=O)OC/C(C)=C/CC/C(C)=C/COP(=O)(O)OP(=O)(O)O
Described as above. The format is biochemical, Escherichia coli. To be noted: other: starter substrate varied 80 - 0 µM, elongation substrate IPP constant 150 µM, 22°C. The procedure:
as §2, §3, §4, §5, §6

Substrate in series [7]: CC(C)=CCC/C(C)=C/COP(=O)(O)OP(=O)(O)O
The description is as above. The format is biochemical, Escherichia coli. Particulars: other: starter substrate varied 80 - 0 µM, elongation substrate IPP constant 150 µM, 22°C. On the procedure:
as §2, §3, §4, §5, §6

Substrate in series [8]: C=C(C)CCO[P@@](=O)(O)OP(=O)(O)O
The series is described as above. The format is biochemical, Escherichia coli. To be noted: other: elongation substrate varied 500 - 0 µM, starter FPP constant 10 µM; 22.0 °C. On the procedure: as §2, §3, §4, §5, §6

Substrate in series [9]: CC(C)=CCC/C(C)=C/CC/C(C)=C/CC/C(C)=C/COP(=O)(O)OP(=O)(O)O
Described as above. The format is biochemical, Escherichia coli. Particulars: other: starter substrate varied 80 - 0 µM, elongation substrate IPP constant 150 µM, 22°C. The procedure:
as §2, §3, §4, §5, §6

Substrate in series [10]: C=C(Br)CCOP(=O)(O)OP(=O)(O)O
The description is as above. The format is biochemical, Escherichia coli. Particulars: other: elongation substrate varied 500 - 0 µM, starter FPP constant 10 µM; 22.0 °C. The procedure: as §2, §3, §4, §5, §6

Substrate in series [11]: C=C(Cl)CCOP(=O)(O)OP(=O)(O)O
The description is as above. To be noted: other: elongation substrate varied, starter FPP 10 µM, room temperature. In kind it is biochemical, Thermococcus kodakaraensis. The procedure:
as §2, §3, §4, §5, §6

Substrate in series [12]: C=C(Br)CCOP(=O)(O)OP(=O)(O)O
The series is described as above. The format is biochemical, Thermococcus kodakaraensis. To be noted: other: elongation substrate varied, starter FPP 10 µM, room temperature. The procedure:
as §2, §3, §4, §5, §6

Substrate in series [13]: C=C(C)CCO[P@@](=O)(O)OP(=O)(O)O
Kind of series: purified protein, by the assay type. To be noted: other: elongation substrate varied, starter FPP 10 µM, room temperature.

The mark [14] stands for this setting: starter substrate varied, IPP constant 150 µM.

As to `CNc1ccccc1C(=O)OC/C(C)=C/CC/C(C)=C/COP(=O)(O)OP(=O)(O)O` [Substrat 110, (2E,6E)-8-O-(N-methyl-2-aminobenzoyl)-3,7-dimethyl-2,6-octandien-1-diphosphat], the “Akzeptanz als Startersubstrat der ThkCPT” value in [1] (65°C) was “als Startersubstrat akzeptiert”. The “rel. kcat Km^-1” value in [2] amounted to 4%.

For the molecule `CC(C)=CCC/C(C)=C/CC/C(C)=C/CC/C(C)=C/COP(=O)(O)OP(=O)(O)O` [GGPP, Geranylgeranyldiphosphat], the “rel. kcat Km^-1” value in [2] came out at 76%.

For orientation: Km means the substrate concentration at which the rate is half of its maximum. As for Farnesyldiphosphat [FPP], in [2], the “rel. kcat Km^-1” value turned out to be 100%. Moreover, the Michaelis-Menten constant (Km) in series [2] (starter substrate varied 80 - 0 µM, elongation substrate IPP constant 150 µM, 22°C) is 1.8 µM. Moreover, in series [2] (setting [14]), the kcat is listed as 0,5 s^-1 and the vmax is listed as 17,9 ± 0,4 nkat/mg.

For `CC(C)=CCC/C(C)=C/CC/C(C)=C\COP(=O)(O)OP(=O)(O)O` [Z,E-FPP], the “rel. kcat Km^-1” value in series [2] came out at 90%.

Regarding `C=C(Br)CCOP(=O)(O)OP(=O)(O)O` [Br-BPP, 3-Brom-3-Butenyldiphosphat], the “Kondensationsschritte / Elongationseinheiten” value in series [3] came out at 2. The “Kondensationen (Reaktionsprodukte)” value in [1] (10 µM ThkCPT, 110 as starter substrate, room temperature 25°C) is “mehr als zwei Kondensationen”. Moreover, the kcat in [2] (elongation substrate varied, starter FPP 10 µM) was 0,0004 s^-1; in [4], 0,0004 s^-1.

B1: E. coli Undecaprenyldiphosphatsynthase (EcUPPS) (Escherichia coli K-12) (protein)
chain: MMLSATQPLSEKLPAHGCRHVAIIMDGNGRWAKKQGKIRAFGHKAGAKSVRRAVSFAANNGIEALTLYAFSSENWNRPAQEVSALMELFVWALDSEVKSLHRHNVRLRIIGDTSRFNSRLQERIRKSEALTAGNTGLTLNIAANYGGRWDIVQGVRQLAEKVQQGNLQPDQIDEEMLNQHVCMHELAPVDLVIRTGGEHRISNFLLWQIAYAELYFTDVLWPDFDEQDFEGALNAFANRERRFGGTEPGDETA
notes: made in house; host or cells: E. coli
Usually kcat/Km stands for the turnover number divided by the Michaelis constant. As to B1, the Km in [5] is 3.8 µM; in series [6] it was 5.6 µM; in [7], 48,8 ± 8,3 µM; in [8], 6.5 µM; in [9], 1.9 µM; in [10], 6.4 µM. Further, the Vmax in [5] was 0,03 nkat mg^-1; in series [6] it was 1,9 ± 0,1 nkat/mg; in series [7], 11,3 ± 0,7 nkat/mg; in [8] it was 14,4 nkat mg^-1; in series [9] it was 14,9 ± 0,3 nkat/mg; in [10], 0,02 nkat mg^-1. The kcat in [6] is 0,1 s^-1; in [7], 0,3 s^-1; in series [8], 0,4 s^-1; in [9], 0,4 s^-1. Also, the kcat/Km was found to be 11000 M⁻¹ s⁻¹ in series [6], 7000 M⁻¹ s⁻¹ in [7] and 223000 M⁻¹ s⁻¹ in series [9].

B2: Thermococcus kodakaraensis cis-Prenyltransferase (ThkCPT) (Thermococcus kodakarensis KOD1) (protein)
chain: MLYRLVSHIPHILFKPVYDAYESYLLEKVKSGNIPKHVAIIMDGNRRWARKLEKPPWYGHLFGSKKLEEILEWCRELNIRTLTVYAFSTENFKRSKEEVEALMNLFEEKFKELVQDERVHRYGIRVNVLGRKDMLPENVRKAAEEAERATRKYSNYNLNIALAYGGRSEIADAVREIVRDVLEGKIKPEDIDEEAIKRYLYYPNMPDPDIVIRTGGEVRISNFLLYQIAYSELFFVDVYFPEFRKIDFLRIIREFQKRQRRFGR
notes: as for B1
Regarding B2, the Km in series [11] is 21,2+/-2,1 µM; in [12] it was 54,0 +/- 11,1 µM; in series [13], 14.8 µM. Moreover, the values for the Vmax in series [11], in [12] and in series [13] were 0,01 nKat mg^-1, 0,01 nKat mg^-1 and 2,0 nKat mg^-1, respectively. Further, the kcat in [13] is on record as 0,07 s^-1.

(Values after EP2848693A1, “Concatenation of halogenated alkenyl diphosphate derivatives” (LANXESS Deutschland GmbH, priority 2013, dated 2015).)
